The values below come from US20050009743A1.

Test [1] deals with (CA-CTD)2, two copies of the HIV-1 CA C-terminal dimerization domain in tandem (plasmid WISP0070) (HIV-1 NL4-3). Briefly: Superdex 75 gel filtration, 4 mg/ml loaded, 25 mM phosphate pH 7.2, 150 mM NaCl; self-association.
The target is the same in test [2]. Briefly: equilibrium sedimentation (analytical ultracentrifugation), 22,000 rpm, 4 °C, 25 mM phosphate pH 7.0, 100 mM NaCl, 2 mM DTT; self-association.
In test [3] the target is CA-NC(G94D) with the CA A42D mutation (plasmid WISP01125) (HIV-1 NL4-3). Briefly: self-assembly of 9 µM mutant protein with 1 µM d(TG)50, overnight at 4 °C, 500 mM NaCl, 50 mM Tris-HCl pH 8.0; light scattering at 312 nm.
Test [4] concerns the target CA-NC(G94D) with the CA W184A/M185A mutations (plasmid WISP01127) (HIV-1 NL4-3). The description is as above.
Test [5] addresses HIV-1 CA-NC (wild-type) (HIV-1 NL4-3). Briefly: self-assembly of 9 µM protein with 1 µM d(TG)50, overnight at 4 °C, 500 mM NaCl, 50 mM Tris-HCl pH 8.0; light scattering at 312 nm (the filing puts the higher signal down to aggregation).
Test [6] concerns the target HIV-1 CA-NC(G94D) protein (HIV-1 NL4-3 Gag amino acids 133-433 with the point mutation G94D; plasmid WISP9868) (HIV-1 NL4-3). The test can be described thus: self-assembly of 9 µM CA-NC(G94D) with 1 µM d(TG)50, 16 h at 4 °C, 500 mM NaCl, 50 mM Tris-HCl; light scattering at 312 nm.
Test [7] shares this target. Briefly: self-assembly of 9 µM protein with 1 µM d(TG)50, overnight at 4 °C, 500 mM NaCl, 50 mM Tris-HCl pH 8.0; light scattering at 312 nm.
For test [8] the target is unchanged. Briefly: self-assembly of 9 µM CA-NC(G94D) with 0.03 mg/ml d(TG)25, overnight at 4 °C, 500 mM NaCl, 50 mM Tris-HCl pH 8.0; light scattering at 312 nm.
Test [9] has the same target. The test can be described thus: self-assembly of 9 µM CA-NC(G94D) with 0.03 mg/ml d(TG)38, overnight at 4 °C, 500 mM NaCl, 50 mM Tris-HCl pH 8.0; light scattering at 312 nm.
Test [10] has the same target. Briefly: self-assembly of 9 µM CA-NC(G94D) with 0.03 mg/ml d(TG)50, overnight at 4 °C, 500 mM NaCl, 50 mM Tris-HCl pH 8.0; light scattering at 312 nm.
For test [11] the target is unchanged. The test can be described thus: self-assembly of 9 µM CA-NC(G94D) with 0.03 mg/ml random 100-base oligonucleotide d(N)100, overnight at 4 °C, 500 mM NaCl, 50 mM Tris-HCl pH 8.0; light scattering at 312 nm (only slightly above background).

The Kd is the constant that tells how readily two partners part at equilibrium. Read a low Kd as tighter binding. For “(CA-CTD)2, two copies of the HIV-1 CA C-terminal dimerization domain in tandem (plasmid WISP0070)”, the apparent mass (gel filtration, oligomerization state) in test [1] turned out to be 59 kDa. For the same substance, in test [2], the Kd was less than 1000 nM.

In test [3], “CA-NC(G94D) with the CA A42D mutation (plasmid WISP01125)” returned an Abs312 (light scattering of cylinder formation) of 0.025.

“CA-NC(G94D) with the CA W184A/M185A mutations (plasmid WISP01127)”: the Abs312 (light scattering of cylinder formation) in [4] is 0.008.

In the case of HIV-1 CA-NC (wild-type), the Abs312 (light scattering of cylinder formation) in [5] is 0.735.

As to “HIV-1 CA-NC(G94D) protein (HIV-1 NL4-3 Gag amino acids 133-433 with the point mutation G94D; plasmid WISP9868)”, the Abs312 (light scattering of cylinder formation) in test [6] is 0.3 to 0.4; in [7], 0.292; in test [8] it was 0.2; in test [9], 0.279; in test [10] it was 0.292; in [11], 0.035.
